Measurements reported in patent publication US20170306033A1 (Amgen, published 2017).

B1: iPS:327896 (bispecific antibody, human IgG1, kappa, lambda, N297G)
light 1: DIQMTQSPSSLSASVGDRITITCRASQSISRYLNWYQQKPGKAPKLLIYAASSLQSGIPSRFSGSGSGTDFTLTINSLQPEDFATYFCQQSYSPPFTFGQGTKVDIKRTVAAPSVFIFPPSDEQLKSGTASVVCLLNNFYPREAKVQWKVDNALQSGNSQESVTEQDSKDSTYSLESTLTLSKADYEKHKVYACEVTHQGLSSPVTKSFNRGEC
heavy 1: not shown
light 2: QSVLTQPPSVSAAPGQKVTISCSGSSSNIGNNYVSWYQQLPGTAPKLLIYDNNKRPSGIPDRFSGSKSGTSATLGITGLQTGDEADYYCGTWDSRLSAVVFGGGTKLTVLGQPKANPTVTLFPPSSEELQANKATLVCLISDFYPGAVTVAWKADGSPVKAGVETTKPSKQSNNKYAAKSYLSLTPEQWKSHRSYSCQVTHEGSTVEKTVAPTECS
heavy 2: QVQLVESGGGVVQPGRSLRLSCAASGFTFSSFGMHWVRQAPGKGLEWVAVISFDGSIKYSVDSVKGRFTISRDNSKNTLFLQMNSLRAEDTAVYYCARDRLNYYESSGYYHYKYYGMAVWGQGTTVTVSSASTKGPSVFPLAPSSKSTSGGTAALGCLVKDYFPEPVTVSWNSGALTSGVHTFPAVLQSSGLYSLESVVTVPSSSLGTQTYICNVNHKPSNTKVDKKVEPKSCDKTHTCPPCPAPELLGGPSVFLFPPKPKDTLMISRTPEVTCVVVDVSHEDPEVKFNWYVDGVEVHNAKTKPCEEQYGSTYRCVSVLTVLHQDWLNGKEYKCKVSNKALPAPIEKTISKAKGQPREPQVYTLPPSRKKMTKNQVSLTCLVKGFYPSDIAVEWESNGQPENNYKTTPPVLKSDGSFFLYSKLTVDKSRWQQGNVFSCSVMHEALHNHYTQKSLSLSPGK
B2: iPS:327887 (bispecific antibody, human IgG1, kappa, lambda, N297G)
light 1: not shown
heavy 1: not shown
light 2: QSVLTQPPSVSAAPGQKVTISCSGSSSNIGNNYVSWYQQLPGTAPKLLIYDNNKRPSGIPDRFSGSKSGTSATLGITGLQTGDEADYYCGTWDSRLSAVVFGGGTKLTVLGQPKANPTVTLFPPSSEELQANKATLVCLISDFYPGAVTVAWKADGSPVKAGVETTKPSKQSNNKYAAKSYLSLTPEQWKSHRSYSCQVTHEGSTVEKTVAPTECS
heavy 2: QVQLVESGGGVVQPGRSLRLSCAASGFTFSSFGMHWVRQAPGKGLEWVAVISFDGSIKYSVDSVKGRFTISRDNSKNTLFLQMNSLRAEDTAVYYCARDRLNYYDSSGYYHYKYYGMAVWGQGTTVTVSSASTKGPSVFPLAPSSKSTSGGTAALGCLVKDYFPEPVTVSWNSGALTSGVHTFPAVLQSSGLYSLESVVTVPSSSLGTQTYICNVNHKPSNTKVDKKVEPKSCDKTHTCPPCPAPELLGGPSVFLFPPKPKDTLMISRTPEVTCVVVDVSHEDPEVKFNWYVDGVEVHNAKTKPCEEQYGSTYRCVSVLTVLHQDWLNGKEYKCKVSNKALPAPIEKTISKAKGQPREPQVYTLPPSRKKMTKNQVSLTCLVKGFYPSDIAVEWESNGQPENNYKTTPPVLKSDGSFFLYSKLTVDKSRWQQGNVFSCSVMHEALHNHYTQKSLSLSPGK
B3: iPS:326645 (bispecific antibody, human IgG2, kappa, lambda)
light 1: not shown
heavy 1: QVQLQESGPGLVKPSQTLSLTCTVSGGSISSGGYYWSWIRQHPGKGLEWIGYIYYSGNTYYNPSLKSRVTISGDTSKNQFSLKLRSVTAADTAVYYCTRGGAARGMDVWGQGTTVTVSSASTKGPSVFPLAPCSRSTSESTAALGCLVKDYFPEPVTVSWNSGALTSGVHTFPAVLQSSGLYSLKSVVTVPSSNFGTQTYTCNVDHKPSNTKVDKTVERKCCVECPPCPAPPVAGPSVFLFPPKPKDTLMISRTPEVTCVVVDVSHEDPEVQFNWYVDGVEVHNAKTKPREEQFNSTFRVVSVLTVVHQDWLNGKEYKCKVSNKGLPAPIEKTISKTKGQPREPQVYTLPPSREEMTKNQVSLTCLVDGFYPSDIAVEWESNGQPENNYDTTPPMLDSDGSFFLYSDLTVDKSRWQQGNVFSCSVMHEALHNHYTQKSLSLSPGK
light 2: not shown
heavy 2: not shown
B4: iPS:327897 (bispecific antibody, human IgG1, kappa, lambda, N297G)
light 1: not shown
heavy 1: not shown
light 2: QSVLTQPPSVSAAPGQKVTISCSGSSSNIGNNYVSWYQQLPGTAPKLLIYDNNKRPSGIPDRFSGSKSGTSATLGITGLQTGDEADYYCGTWDSRLSAVVFGGGTKLTVLGQPKANPTVTLFPPSSEELQANKATLVCLISDFYPGAVTVAWKADGSPVKAGVETTKPSKQSNNKYAAKSYLSLTPEQWKSHRSYSCQVTHEGSTVEKTVAPTECS
heavy 2: QVQLVESGGGVVQPGRSLRLSCAASGFTFSSFGMHWVRQAPGKGLEWVAVISFDGSIKYSVDSVKGRFTISRDNSKNTLFLQMNSLRAEDTAVYYCARDRLNYYESSGYYHYKYYGMAVWGQGTTVTVSSASTKGPSVFPLAPSSKSTSGGTAALGCLVKDYFPEPVTVSWNSGALTSGVHTFPAVLQSSGLYSLESVVTVPSSSLGTQTYICNVNHKPSNTKVDKKVEPKSCDKTHTCPPCPAPELLGGPSVFLFPPKPKDTLMISRTPEVTCVVVDVSHEDPEVKFNWYVDGVEVHNAKTKPCEEQYGSTYRCVSVLTVLHQDWLNGKEYKCKVSNKALPAPIEKTISKAKGQPREPQVYTLPPSRKKMTKNQVSLTCLVKGFYPSDIAVEWESNGQPENNYKTTPPVLKSDGSFFLYSKLTVDKSRWQQGNVFSCSVMHEALHNHYTQKSLSLSPGK
B5: iPS:327888 (bispecific antibody, human IgG1, kappa, lambda, N297G)
light 1: DIQMTQSPSSLSASVGDRITITCRASQSISRYLNWYQQKPGKAPKLLIYAASSLQSGIPSRFSGSGSGTDFTLTINSLQPEDFATYFCQQSYSPPFTFGQGTKVDIKRTVAAPSVFIFPPSDEQLKSGTASVVCLLNNFYPREAKVQWKVDNALQSGNSQESVTEQDSKDSTYSLESTLTLSKADYEKHKVYACEVTHQGLSSPVTKSFNRGEC
heavy 1: not shown
light 2: QSVLTQPPSVSAAPGQKVTISCSGSSSNIGNNYVSWYQQLPGTAPKLLIYDNNKRPSGIPDRFSGSKSGTSATLAITGLQTGDEADYYCGTWDSRLSAVVFGGGTKLTVLGQPKANPTVTLFPPSSEELQANKATLVCLISDFYPGAVTVAWKADGSPVKAGVETTKPSKQSNNKYAAKSYLSLTPEQWKSHRSYSCQVTHEGSTVEKTVAPTECS
heavy 2: QVQLVESGGGVVQPGRSLRLSCAASGFTFSSFGMHWVRQAPGKGLEWVAVISFDGSIKYSVDSVKGRFTISRDNSKNTLFLQMNSLRAEDTAVYYCARDRLNYYDSSGYYHYKYYGMAVWGQGTTVTVSSASTKGPSVFPLAPSSKSTSGGTAALGCLVKDYFPEPVTVSWNSGALTSGVHTFPAVLQSSGLYSLESVVTVPSSSLGTQTYICNVNHKPSNTKVDKKVEPKSCDKTHTCPPCPAPELLGGPSVFLFPPKPKDTLMISRTPEVTCVVVDVSHEDPEVKFNWYVDGVEVHNAKTKPCEEQYGSTYRCVSVLTVLHQDWLNGKEYKCKVSNKALPAPIEKTISKAKGQPREPQVYTLPPSRKEMTKNQVSLTCLVKGFYPSDIAVEWESNGQPENNYKTTPPVLKSDGSFFLYSKLTVDKSRWQQGNVFSCSVMHEALHNHYTQKSLSLSPGK
B6: iPS:328031 (bispecific antibody, human IgG1, kappa, N297G)
light 1: DIQMTQSPSSLSASVGDRITITCRASQSISRYLNWYQQKPGKAPKLLIYAASSLQSGIPSRFSGSGSGTDFTLTINSLQPEDFATYFCQQSYSPPFTFGQGTKVDIKRTVAAPSVFIFPPSDEQLKSGTASVVCLLNNFYPREAKVQWKVDNALQSGNSQESVTEQDSKDSTYSLESTLTLSKADYEKHKVYACEVTHQGLSSPVTKSFNRGEC
heavy 1: not shown
light 2: EIVLTQSPGTLSLSPGERATLSCRASQSVSSGYLTWYQQKPGQAPRLLIYGASSRATGIPDRFSGSGSGTDFTLTISRLEPEDFAVYYCQQYGNSLSRFGQGTKLEIKRTVAAPSVFIFPPSDEQLKSGTASVVCLLNNFYPREAKVQWKVDNALQSGNSQESVTEQDSKDSTYSLKSTLTLSKADYEKHKVYACEVTHQGLSSPVTKSFNRGEC
heavy 2: not shown
B7: iPS:327889 (bispecific antibody, human IgG1, kappa, lambda, N297G)
light 1: not shown
heavy 1: not shown
light 2: QSVLTQPPSVSAAPGQKVTISCSGSSSNIGNNYVSWYQQLPGTAPKLLIYDNNKRPSGIPDRFSGSKSGTSATLAITGLQTGDEADYYCGTWDSRLSAVVFGGGTKLTVLGQPKANPTVTLFPPSSEELQANKATLVCLISDFYPGAVTVAWKADGSPVKAGVETTKPSKQSNNKYAAKSYLSLTPEQWKSHRSYSCQVTHEGSTVEKTVAPTECS
heavy 2: QVQLVESGGGVVQPGRSLRLSCAASGFTFSSFGMHWVRQAPGKGLEWVAVISFDGSIKYSVDSVKGRFTISRDNSKNTLFLQMNSLRAEDTAVYYCARDRLNYYDSSGYYHYKYYGMAVWGQGTTVTVSSASTKGPSVFPLAPSSKSTSGGTAALGCLVKDYFPEPVTVSWNSGALTSGVHTFPAVLQSSGLYSLESVVTVPSSSLGTQTYICNVNHKPSNTKVDKKVEPKSCDKTHTCPPCPAPELLGGPSVFLFPPKPKDTLMISRTPEVTCVVVDVSHEDPEVKFNWYVDGVEVHNAKTKPCEEQYGSTYRCVSVLTVLHQDWLNGKEYKCKVSNKALPAPIEKTISKAKGQPREPQVYTLPPSRKEMTKNQVSLTCLVKGFYPSDIAVEWESNGQPENNYKTTPPVLKSDGSFFLYSKLTVDKSRWQQGNVFSCSVMHEALHNHYTQKSLSLSPGK
B8: iPS:328033 (bispecific antibody, human IgG1, kappa, N297G)
light 1: not shown
heavy 1: not shown
light 2: EIVLTQSPGTLSLSPGERATLSCRASQSVSSGYLTWYQQKPGQAPRLLIYGASSRATGIPDRFSGSGSGTDFTLTISRLEPEDFAVYYCQQYGNSLSRFGQGTKLEIKRTVAAPSVFIFPPSDEQLKSGTASVVCLLNNFYPREAKVQWKVDNALQSGNSQESVTEQDSKDSTYSLKSTLTLSKADYEKHKVYACEVTHQGLSSPVTKSFNRGEC
heavy 2: not shown
B9: iPS:326651 (bispecific antibody, human IgG2, kappa, lambda)
light 1: not shown
heavy 1: QVQLQESGPGLVKPSQTLSLTCTVSGGSISSGGYYWSWIRQHPGKGLEWIGYIYYSGNTYYNPSLKSRVTISGDTSKNQFSLKLRSVTAADTAVYYCTRGGAARGMDVWGQGTTVTVSSASTKGPSVFPLAPCSRSTSESTAALGCLVKDYFPEPVTVSWNSGALTSGVHTFPAVLQSSGLYSLKSVVTVPSSNFGTQTYTCNVDHKPSNTKVDKTVERKCCVECPPCPAPPVAGPSVFLFPPKPKDTLMISRTPEVTCVVVDVSHEDPEVQFNWYVDGVEVHNAKTKPREEQFNSTFRVVSVLTVVHQDWLNGKEYKCKVSNKGLPAPIEKTISKTKGQPREPQVYTLPPSREEMTKNQVSLTCLVDGFYPSDIAVEWESNGQPENNYDTTPPMLDSDGSFFLYSDLTVDKSRWQQGNVFSCSVMHEALHNHYTQKSLSLSPGK
light 2: not shown
heavy 2: not shown

Assays:
human CGRP receptor = human CGRP receptor (human, UniProt Q16602 23-461; O60894 27-148); test: cell-based or functional assay
human PAC1 receptor = molecular target: T1, human PAC1 receptor (human, UniProt P41586 21-468); test: cell-based or functional assay
T1 sequence: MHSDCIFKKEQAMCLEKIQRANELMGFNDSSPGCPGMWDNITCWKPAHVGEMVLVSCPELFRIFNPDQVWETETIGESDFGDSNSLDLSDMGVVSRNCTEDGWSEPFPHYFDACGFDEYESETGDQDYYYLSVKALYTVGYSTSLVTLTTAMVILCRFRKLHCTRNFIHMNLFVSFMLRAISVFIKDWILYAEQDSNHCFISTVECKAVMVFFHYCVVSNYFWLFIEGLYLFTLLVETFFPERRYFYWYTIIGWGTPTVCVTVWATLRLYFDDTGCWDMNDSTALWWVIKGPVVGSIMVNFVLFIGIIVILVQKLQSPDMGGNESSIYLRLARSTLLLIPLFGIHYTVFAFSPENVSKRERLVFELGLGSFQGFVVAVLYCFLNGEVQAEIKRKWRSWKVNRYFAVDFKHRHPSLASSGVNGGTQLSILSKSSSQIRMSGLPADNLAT

human CGRP receptor, sequence (Q16602 23-461 limits assumed, chain 1 of 2): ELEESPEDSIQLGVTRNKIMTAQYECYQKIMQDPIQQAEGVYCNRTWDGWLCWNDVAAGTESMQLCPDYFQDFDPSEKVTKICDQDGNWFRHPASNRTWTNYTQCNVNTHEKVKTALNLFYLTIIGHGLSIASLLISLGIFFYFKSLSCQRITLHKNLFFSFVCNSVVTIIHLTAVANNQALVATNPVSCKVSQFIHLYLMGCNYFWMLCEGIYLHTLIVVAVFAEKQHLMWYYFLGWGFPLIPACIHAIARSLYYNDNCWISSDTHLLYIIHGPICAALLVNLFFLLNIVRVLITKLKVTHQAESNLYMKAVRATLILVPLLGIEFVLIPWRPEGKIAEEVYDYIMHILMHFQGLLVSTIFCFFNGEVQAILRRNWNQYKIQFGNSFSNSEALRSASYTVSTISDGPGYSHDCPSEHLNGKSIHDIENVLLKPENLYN
human CGRP receptor, sequence (O60894 27-148 limits assumed, chain 2 of 2): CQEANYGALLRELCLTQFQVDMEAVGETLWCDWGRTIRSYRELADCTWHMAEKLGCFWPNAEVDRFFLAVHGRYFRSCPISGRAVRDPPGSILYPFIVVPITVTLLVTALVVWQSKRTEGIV

% inhibition of human CGRPR (human CGRP receptor) | % inhibition of human PAC1 (human PAC1 receptor) | Binder
87% | 28% | B1
87% | 35% | B2
67% | 59% | B3
80% | 12% | B4
83% | 56% | B5
75% | 27% | B6
83% | 9% | B7
82% | 20% | B8
66% | 23% | B9
